According to patent US20220298231A1 (AC IMMUNE, published 2022):
Where no end group is shown, it is not given here. The star is where a group is joined. Biotin = O=C1N[C@H]2[C@H](CS[C@H]2CCCCC(=O)*)N1; Ahx = NCCCCCC(=O)O

Experiments:
[1] = target: T1, 1-15aa; assay: 15-mer peptide ELISA
T1 construct: also called alpha-synuclein peptide 1-15
T1 peptide: {Biotin-Ahx}-MDVFMKGLSKAKEGV
Procedure: (§1) Epitope mapping for the antibodies derived from stable hybridoma clones was determined using an indirect ELISA on a library of 15-mer peptides covering the entire sequence of human alpha-synuclein from 1 to 140aa. […] Results are expressed as optical density (O.D.). Each bar represents data for an individual antibody.
(§2) Serum-free supernatants were harvested from stable hybridomas. The supernatants containing antibodies of interest were then screened by an indirect ELISA assay to determine epitopes. Epitopes were first determined using a library of 15-mer peptides covering the entire sequence of human alpha-synuclein protein, spanning amino acids (aa) 1-140 with 9aa offset and 6aa overlap. […] Briefly, streptavidin-coated ELISA plates were blocked overnight at 4° C. […] Plates were washed with PBS/0.05% Tween® 20 and then incubated with the hybridoma supernatants at 1/100 dilution for 1 hour at 25° C. […] After final wash, plates were incubated 2 hours at 25° C. with alkaline phosphatase substrate (p-nitrophenyl phosphate disodium hexahydrate; pNPP, S0942, Sigma) and read the absorbance optical density (O.D.) signal at 405 nm using an ELISA plate reader (Tecan, Switzerland).

[2] = target: T2, 37-51aa; assay: 15-mer peptide ELISA
T2 construct: also called alpha-synuclein peptide 37-51
T2 peptide: {Biotin-Ahx}-VLYVGSKTKEGVVHG
Procedure: as §1, §2

[3] = target: T3, 82-96aa; assay: 15-mer peptide ELISA
T3 construct: also called alpha-synuclein peptide 82-96
T3 peptide: {Biotin-Ahx}-VEGAGSIAAATGFVK
Procedure: as §1, §2

[4] = target: T4, 91-105aa; assay: indirect ELISA on biotinylated 15-mer peptide (streptavidin plate), supernatant 1/100
T4 construct: also called alpha-synuclein peptide 91-105
T4 peptide: {Biotin-Ahx}-ATGFVKKDQLGKNEE
Procedure: as §1, §2

[5] = target: human full-length alpha-synuclein (human, UniProt P37840 1-140); assay: SPR, mAb captured
Procedure: (§3) Immobilization levels were evaluated following ethanolamine capping (Bound) and finally following regeneration (Final). Non-covalent immobilization of alpha-synuclein antibodies was performed using a target immobilization method of 2000 response units (RU).
(§4) Binding affinity of alpha-synuclein antibodies to monomeric or fibrillar alpha-synuclein species was performed using a single-cycle kinetics method. […] A dissociation phase of 900 sec followed the final 50 nM injection. Regeneration of the sensor to the goat anti-mouse antibody layer was achieved using 3 regenerations of 10 mM Glycine pH 1.7. […] Regeneration of the sensor to the goat anti-mouse antibody layer was achieved using 3 regenerations of 10 mM Glycine pH 1.7. Results obtained from single-cycle kinetics were evaluated by Biacore T200 evaluation software with 1:1 binding homogenous Langmuir model (with a global Rmax) with Cycle 5 as a blank subtraction. The following kinetic parameters were obtained: on-rate (ka), off-rate (kd), affinity constant (KD, ratio of kd by ka), maximum response (Rmax), and goodness of fit (Chi2).
(§5) Non-covalent capture of the alpha-synuclein antibodies was performed in three separate runs.

[6] = target: alpha-synuclein fibrils (Homo sapiens (Human), UniProt P37840 1-140); assay: SPR, mAb captured
Procedure: as §3, §4, §5

[7] = target: 28-42aa; assay: 15-mer peptide ELISA
Procedure: as §1, §2

[8] = target: T4, 91-105aa; assay: 15-mer peptide ELISA
Procedure: as §1, §2

[9] = target: 28-42aa; assay: indirect ELISA on biotinylated 15-mer peptide (streptavidin plate), supernatant 1/100
Procedure: as §1, §2

[10] = target: T2, 37-51aa; assay: as above
Procedure: as §1, §2

[11] = target: T5, 100-114aa; assay: 15-mer peptide ELISA;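 also: indirect ELISA of hybridoma supernatant antibodies (1/100, 1 h) binding immobilized 15-mer peptides spanning human alpha-synuclein 1-140 on streptavidin plates, read as optical density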
T5 peptide: {Biotin-Ahx}-LGKNEEGAPQEGILE
Procedure: as §1, §2

[12] = target: T6, 109-123aa; assay: 15-mer peptide ELISA;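 also: indirect ELISA of hybridoma supernatant antibodies (1/100, 1 h) binding immobilized 15-mer peptides spanning human alpha-synuclein 1-140 on streptavidin plates, read as optical density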
T6 peptide: {Biotin-Ahx}-QEGILEDMPVDPDNE
Procedure: as §1, §2

[13] = target: T3, 82-96aa; assay: indirect ELISA on biotinylated 15-mer peptide (streptavidin plate), supernatant 1/100
Procedure: as §1, §2

[14] = target: T3, 82-96aa; assay: 15-mer peptide ELISA
Procedure: as §1, §2

[15] = target: T4, 91-105aa; assay: indirect ELISA on biotinylated 15-mer peptide (streptavidin plate), supernatant 1/100
Procedure: as §1, §2

[16] = target: T1, 1-15aa; assay: as above
Procedure: as §1, §2

B1: ACI-7088-4303H6-Ab1 (antibody, V domains shown)
VH: EVQLQQSGAELVRPGASVKLSCTASGFNIQDDYMHWVKQRPEQGLEWIGWIDPENGDTEYASKFQGKATLTADTSSNTAYLQLSRLTSEDTAVYYCTTAGSGVQLFDYWGQGTTLTVSA
VL: DILMTQSQKFMSTSVGDRVSVTCKASQNVGTNVAWYQQKPGQSPKPLISSASSRYSGVPDRFTGSGSGTDFTLTISNVQSEDLADYFCQQYNRYPLTFGAGTKLELK
notes: mouse hybridoma mAb; tied by the hybridoma code 4303H6D7; also called 4303H6D7
[1]
  binding result: no binding (tested: supernatant 1/100)
[2]
  binding result: no binding (tested: supernatant 1/100)
[3]
  binding result: no binding (tested: supernatant 1/100)
[4]
  binding result: binds

B2: ACI-7089-4417G6-Ab1 (antibody, V domains shown)
VH: QVQLQQSGAELVRPGASVTLSCKASGYTFTGYEMHWVKQTPVHGLEWIGAIDPETGGTAYIQKFKGKATLTADKSSSTAYMELRSLTSEDSAVYYCTRGWDYFDYWGQGTTLTVSA
VL: DVVMTQTPLSLPVSLGDQASISCRSSQSLLHSNGFTYLHWYLQKPGQSPKLLIYRVSNRFSGVPDRFSGSGSGTDFTLKISRVEAEDLGVYFCSQSTHVPYTFGGGTKLEIK
notes: mouse hybridoma mAb; also called 4417G6B12
[5]
  Kd: 22.6 nM
  koff: 5.58 s⁻¹
  kon: 2.47e+08 M⁻¹ s⁻¹
[6]
  Kd: 48.7 nM
  koff: 0.00874 s⁻¹
  kon: 179000 M⁻¹ s⁻¹
[1]
  binding result: no binding (tested: supernatant 1/100)
[7]
  binding result: no binding (tested: supernatant 1/100)
[3]
  binding result: no binding (tested: supernatant 1/100)
[8]
  binding result: no binding (tested: supernatant 1/100)

B3: ACI-7088-4301D5-Ab2 (antibody, V domains shown)
VH: QVQLQQSGPELVRPGASVKISCKASGYRFTSYYIHWVKQRPGQGLEWIGWIYPGSDNTKHNDKFKGKATLTADTSSSTAYMQLSSLTSEDSAVYFCARDYDVGFGYWGQGTLVTVSS
VL: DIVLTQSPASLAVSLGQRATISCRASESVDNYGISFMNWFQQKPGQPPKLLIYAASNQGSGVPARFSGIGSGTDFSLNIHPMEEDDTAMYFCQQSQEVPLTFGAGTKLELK
notes: mouse hybridoma mAb; also called 4301D5B10
[1]
  binding result: no binding (tested: supernatant 1/100)
[3]
  binding result: no binding (tested: supernatant 1/100)
[8]
  binding result: no binding (tested: supernatant 1/100)
[9]
  binding result: binds
[10]
  binding result: binds

B4: ACI-8033-8C10-Ab1 (antibody, V domains shown)
VH: DVQLQESGPGLVKPSQSLSLTCSVTGQSITSGYYWNWIRQFPGNKLEWMGYISNDGSSKTNPSLTNRISVTRDTSKNQVFLKLKSVTTEDTATYYCVRGDQHWGQGTALTVSS
VL: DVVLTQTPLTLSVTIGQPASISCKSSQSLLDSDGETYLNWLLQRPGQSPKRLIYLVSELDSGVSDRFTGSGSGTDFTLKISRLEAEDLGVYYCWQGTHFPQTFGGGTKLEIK
notes: mouse hybridoma mAb; also called 917.8C10C6G3
[11]
  binding result: no binding (tested: supernatant 1/100)
[12]
  binding result: no binding (tested: supernatant 1/100)
[13]
  binding result: binds

B5: ACI-8033-4F3-Ab1 (antibody, V domains shown)
VH: EVQLQQSGPELVKPGASVKISCKASGYTFTDYYMNWVKQSHGKSLEWIGDINPNTGTNSYNQKFKGRASLTVDKFSSAAYMELRSLTSEDSAVYYCARTGYGDPISSYYYALDYWGQGTSVTVSS
VL: DIVMSQSPSSLAVSAGEKVTMSCKSSQSLLNSRTRKNYLAWYQQKPGQSPKLLIYWASTRESGVPDRFTGSGSGTDFTLTISSVQAEDLAVYYCKQSYNLWTFGGGTKLEIK
notes: mouse hybridoma mAb; also called 917.4F3F4G6
[14]
  binding result: no binding (tested: supernatant 1/100)
[11]
  binding result: no binding (tested: supernatant 1/100)
[12]
  binding result: no binding (tested: supernatant 1/100)
[15]
  binding result: binds

B6: ACI-7088-4303B6-Ab2 (antibody, V domains shown)
VH: EVQLQQSGPELVKPGASVKISCKASGYTFTDYYMNWVKQSHGKSLEWIGDINPNNGGTTYNQKFKDKATLTVDRSSSTAYMELRSLTSGDSAVYYCARSGYSGSRLYYAMDYWSQGSSVTVSS
VL: DIVMSQSPSSLAVSAREKVTMSCKSSQSLLNSRTRKNYLAWYQQKPGQSPKLLIFWASTRESGVPDRFTGSGSGTDFTLTISSVQAEDLAVYYCKQSYDLWTFGGGTKLEIK
notes: mouse hybridoma mAb; tied by the hybridoma code 4303B6C11; also called ACI-7088-4303B6-Ab1; 4303B6C11
[5]
  Kd: 78.5 nM
  koff: 0.106 s⁻¹
  kon: 1.35e+06 M⁻¹ s⁻¹
[6]
  Kd: 9.5 nM
  koff: 0.00013 s⁻¹
  kon: 13700 M⁻¹ s⁻¹
[7]
  binding result: no binding (tested: supernatant 1/100)
[2]
  binding result: no binding (tested: supernatant 1/100)
[3]
  binding result: no binding (tested: supernatant 1/100)
[8]
  binding result: no binding (tested: supernatant 1/100)
[16]
  binding result: binds

B7: ACI-7088-4301H3-Ab2 (antibody, V domains shown)
VH: EVQLQQSGPELVKPGASVKISCKASGYTFADYFMNWVKQSHGKSLEWIGDINPNNGGTTYNQKFKGKATLTVDKSSNTAYMELRSLTSEDSAVYYCARGRNYAMDYWGQGTSVTVSS
VL: DIVMSQSPSSLAVSAGEKVTMSCKSSQSLLNSRTRKNYLAWYQQKPGQSPKLLIYSASTRESGVPDRFTGSGFGTDFTLTISSVQAEDLAVYYCKQSYDLWTFGGGTKLEIK
notes: mouse hybridoma mAb; also called 4301H3A5
[1]
  binding result: no binding (tested: supernatant 1/100)
[2]
  binding result: no binding (tested: supernatant 1/100)
[3]
  binding result: no binding (tested: supernatant 1/100)
[4]
  binding result: binds

B8: ACI-8033-17F5-Ab1 (antibody, V domains shown)
VH: EVQLQQSGPELVKPGASVKISCKASGYTFTDYFMNWVKQSHGKSLEWIGDINPNIDVTNYNQKFKGKATLTVDKSSSTAYMELRSLTSEDSAVYYCARGRDYAMDFWGQGTSVTVSS
VL: DIVMSQSPSSLAVSAGEKVTMSCKSSQSLLNSRTRKNYLAWYQQKPGQSPKLLIYWASTRESGVPDRFTGSGSGTDFTLTISSVQAEDLAVYYCKQSYDLWTFGGGTKLEIK
notes: mouse hybridoma mAb; also called 917.17F5F5G9
[14]
  binding result: no binding (tested: supernatant 1/100)
[11]
  binding result: no binding (tested: supernatant 1/100)
[12]
  binding result: no binding (tested: supernatant 1/100)
[15]
  binding result: binds

B9: ACI-7087-4119E10-Ab2 (antibody, V domains shown)
VH: QVQLQQSGAELVRPGASVTLSCKASGYTFSDYEMNWVKQTPVHGLEWIGAIDPETGGTAYNQKFKGKAILTSDKSSSTAYMELRSLTSEDSAVYYCTRFLLIDFDYWGQGTTLTVSS
VL: DVLMTQTPLSLPVSLGDQASISCRSSQSIVHSNGNTYLEWYLKKAGQSPKVLIYKVSNRFSGVPDRFSGSGSGTDFTLKISRVEAEDLGVYYCFQGSHVPYTFGGGTELEIK
notes: mouse hybridoma mAb; also called 4119E10D12
[1]
  binding result: no binding (tested: supernatant 1/100)
[3]
  binding result: no binding (tested: supernatant 1/100)
[8]
  binding result: no binding (tested: supernatant 1/100)
[9]
  binding result: binds
[10]
  binding result: binds

B10: ACI-7088-4305H7-Ab1 (antibody, V domains shown)
VH: EVQLQQSGAELVRPGASVKLSCTASGFNIKDDYMHWVKQRPEQGLEWIGWIDPENGDTEYASKFQGKATMIADTSSNTAYLQLSSLTSEDTAVYYCKTWGTTQALFPYWGQGTLVTVSS
VL: DIVMTQSQKFMSTSVGDRVSITCKASQNVGTAVGWYQQKAGQSPKLLIHSASNRYTGVPDRFTGSGSGTDFTLTINNMQSEDLADYFCQQYRSYPLTFGAGTKLELK
notes: mouse hybridoma mAb; also called 4305H7A4
[2]
  binding result: no binding (tested: supernatant 1/100)
[3]
  binding result: no binding (tested: supernatant 1/100)
[16]
  binding result: binds
[4]
  binding result: binds
